# Assay results reported in patent publication US6528275B1, “Substrates and inhibitors of proteolytic enzymes” (Peptide Therapeutics Limited, priority 1996, dated 2003).
# B1: Der pI (Dermatophagoides pteronyssinus) (protein)
# chain: TNACSINGNAPAEIDLRQMRTVTPIRMQGGCGSCWAFSGVAATESAYLAYRNQSLDLAEQELVDCASQHGCHGDTIPRGIEYIQHNGVVQESYYRYVAREQSCRRPNAQRFGISNYCQIYPPNVNKIREALAQTHSAIAVIIGIKDLDAFRHYDGRTIIQRDNGYQPNYHAVNIVGYSNAQGVDYWIVRNSWDTNWGDNGYGYFAANIDLMMIEEYPYVVIL
# notes: tissue SmithKline-Beecham, U.K (crude mite extract); host or cells: crude house dust mite extract
# Key:
# Assay in all cases: Der pI substrate assay with FRET peptides (fluorescence, Km, kcat/Km)
# Type in all cases: biochemical, house dust mite
# Conditions in all cases: other: purified Der pI; peptides SEQ ID Nos. 1-76; pH 8.25
# [1] = substrate: CC(C)CC[C@H](NC(=O)[C@H](C)NC(=O)[C@H](CC[S+](C)[O-])NC(=O)c1ccccc1N)C(=O)N[C@@H](CO)C(=O)N[C@@H](Cc1ccc(O)c([N+](=O)[O-])c1)C(=O)N[C@@H](CC(=O)O)C(N)=O
# Experimental: (§1) Using the general techniques described above, the following compounds were prepared and assayed as potential substrates against Der pI purified as described above.
# (§2) Each mixture of 20 compounds in the libraries of the apparatus described herein was screened at a concentration of 1.0 μM per compound in an assay against the cysteinyl protease Der pI.
# (§3) Plate assays were carried out in 96 well plate format, using 0.1 ug of Der pI per 100 μL assay volume in each well and using 20 μM of the substrate. All assays were performed in Assay Buffer (AB; 50 mM potassium phosphate, pH 8.25 containing 1 mM ethylenediaminetetraacetic acid (EDTA) and 1 mM dithiothreitol (DTT). The Der pI enzyme is pre-activated by addition of DTT and this in incubated at room temperature for 5 min. prior to initiation of the assay. As an example for the screening methodology, each well contains a 5 μL of a 20 μM solution of the test compound in DMSO, 10 μL of a 200 μM aqueous solution of the substrate, 2, and 85 μL of Der pI in AB is added to initiate the reaction. Enzyme activity is monitored by fluorescence using 320 nm for excitation and 420 nm for the emission wavelengths using a Labsystems Fluroskan Ascent machine. Kinetic measurements were carried out using a Hitachi F-4500 Fluorescence Spectrophotometer.
# [2] = substrate: CC(C)CC[C@H](NC(=O)[C@H](C)NC(=O)[C@H](Cc1ccc(-c2ccccc2)cc1)NC(=O)c1ccccc1N)C(=O)N1C[C@H](O)C[C@H]1C(=O)N[C@@H](Cc1ccc(O)c([N+](=O)[O-])c1)C(=O)N[C@@H](CC(=O)O)C(N)=O
# Experimental: as §1, §2, §3
# [3] = substrate: CC(C)CC[C@H](NC(=O)[C@H](C)NC(=O)[C@H](Cc1ccc(-c2ccccc2)cc1)NC(=O)c1ccccc1N)C(=O)N[C@@H](CC(C)C)C(=O)N[C@@H](Cc1ccc(O)c([N+](=O)[O-])c1)C(=O)N[C@@H](CC(=O)O)C(N)=O
# Experimental: as §1, §2, §3
# [4] = substrate: CC(C)CC[C@H](NC(=O)[C@H](C)NC(=O)[C@H](Cc1ccc(-c2ccccc2)cc1)NC(=O)c1ccccc1N)C(=O)N[C@@H](CO)C(=O)N[C@@H](Cc1ccc(O)c([N+](=O)[O-])c1)C(=O)N[C@@H](CC(=O)O)C(N)=O
# Experimental: as §1, §2, §3
# [5] = substrate: CC(C)CC[C@H](NC(=O)[C@H](C)NC(=O)[C@H](Cc1ccc(-c2ccccc2)cc1)NC(=O)c1ccccc1N)C(=O)N[C@@H](Cc1ccc(O)cc1)C(=O)N[C@@H](Cc1ccc(O)c([N+](=O)[O-])c1)C(=O)N[C@@H](CC(=O)O)C(N)=O
# Experimental: as §1, §2, §3
# [6] = substrate: CC(C)CC[C@H](NC(=O)[C@H](C)NC(=O)[C@H](Cc1ccc(-c2ccccc2)cc1)NC(=O)c1ccccc1N)C(=O)N[C@H](C(=O)N[C@@H](Cc1ccc(O)c([N+](=O)[O-])c1)C(=O)N[C@@H](CC(=O)O)C(N)=O)C(C)(C)C
# Experimental: as §1, §2, §3
# [7] = substrate: CC(C)CC[C@H](NC(=O)[C@H](CCCCN)NC(=O)[C@@H](NC(=O)c1ccccc1N)C(C)C)C(=O)N[C@@H](CO)C(=O)N[C@@H](Cc1ccc(O)c([N+](=O)[O-])c1)C(=O)N[C@@H](CC(=O)O)C(N)=O
# Experimental: as §1, §2, §3
# [8] = substrate: CC(C)[C@H](NC(=O)c1ccccc1N)C(=O)N[C@@H](C)C(=O)N[C@H](C(=O)N[C@@H](CO)C(=O)N[C@@H](Cc1ccc(O)c([N+](=O)[O-])c1)C(=O)N[C@@H](CC(=O)O)C(N)=O)[C@@H](C)O
# Experimental: as §1, §2, §3
# [9] = substrate: CCCC[C@H](NC(=O)[C@H](C)NC(=O)[C@@H](NC(=O)[C@H](CCC(=O)O)NC(=O)c1ccccc1N)C(C)C)C(=O)N[C@@H](CO)C(=O)N[C@@H](Cc1ccc(O)c([N+](=O)[O-])c1)C(=O)N[C@@H](CC(=O)O)C(N)=O
# Experimental: as §1, §2, §3
# [10] = substrate: CCCC[C@H](NC(=O)[C@H](C)NC(=O)[C@@H](NC(=O)[C@H](CCCCN)NC(=O)c1ccccc1N)C(C)C)C(=O)N[C@@H](CO)C(=O)N[C@@H](Cc1ccc(O)c([N+](=O)[O-])c1)C(=O)N[C@@H](CC(=O)O)C(N)=O
# Experimental: as §1, §2, §3
# [11] = substrate: CCCC[C@H](NC(=O)[C@H](C)NC(=O)[C@@H](NC(=O)[C@H](Cc1ccc(-c2ccccc2)cc1)NC(=O)c1ccccc1N)C(C)C)C(=O)N[C@@H](CO)C(=O)N[C@@H](Cc1ccc(O)c([N+](=O)[O-])c1)C(=O)N[C@@H](CC(=O)O)C(N)=O
# Experimental: as §1, §2, §3
# [12] = substrate: CCCC[C@H](NC(=O)[C@H](C)NC(=O)[C@@H](NC(=O)c1ccccc1N)C(C)C)C(=O)N[C@@H](CO)C(=O)N[C@@H](Cc1ccc(O)c([N+](=O)[O-])c1)C(=O)N[C@@H](CC(=O)O)C(N)=O
# Experimental: as §1, §2, §3
protein,measurement,setting,value
B1,Km,[1],20 µM
same,Km,[2],4 µM
same,Km,[3],3.7 µM
same,Km,[4],2.5 µM
same,Km,[5],3 µM
same,Km,[6],4 µM
same,Km,[7],35 µM
same,Km,[8],6 µM
same,Km,[9],20 µM
same,Km,[10],15 µM
same,Km,[11],10 µM
same,Km,[12],12 µM
